This data set deals with the molecule itself. The data set is described as follows: SEC; L1 in solution; conditions not given. A general note: SEC sorts molecules by how far they enter the pores of the column.

The stoichiometry N is the number of molecules, sites or subunits per partner or assembly.

B1: L1 metallo-β-lactamase (MBL) from Stenotrophomonas maltophilia (enzyme)
chain: SAAEAPLPQLRAYTVDASWLQPMAPLQVADHTWQIGTEDLTALLVQTAEGAVLLDGGMPQMAGHLLDNMKLRGVAPQDLRLILLSHAHADHAGPVAELKRRTGAHVAANAETAVLLARGGSNDLHFGDGITYPPASADRIIMDGEVVTVGGIAFTAHFMPGHTPGSTAWTWTDTRDGKPVRIAYADSLSAPGYQLKGNPRYPRLIEDYKRSFATVRALPCDLLLTPHPGASNWNYAVGSKASAEALTCNAYADAAEKKFDAQLARETAGTR
notes: L1 metallo-β-lactamase, Stenotrophomonas maltophilia K279a, residues 20-290, amplified from genomic DNA and cloned into pMCSG53; Homotetramer; Active-site residue numbers in the text (H116, H118, D120 ...) appear to follow the standard MBL numbering, not the 20-290 numbering of the construct; also called L1 MBL; source: E. coli BL21 DE3 (Gold), purified (IMAC, TEV cleavage, second IMAC); not …
Regarding B1, the “stoichiometry N” value is 4.

Values taken from article PMC9712583, “Time-resolved β-lactam cleavage by L1 metallo-β-lactamase” (Nature Communications, 2022).
